PMC2946844

T1: 1xMBD-GFP (UniProt Q9Z2E2 1-75)
T1 sequence: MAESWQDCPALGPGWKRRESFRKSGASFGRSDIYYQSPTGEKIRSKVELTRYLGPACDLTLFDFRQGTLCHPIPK

B1: o_o_m/m_m_m (dsDNA)
DNA 1: TTTGCGGTCCGCTGCCCGACCC
DNA 2: GGGTCGGGCAGCGGACCGCAAA
modifications: strand 1 5mC17; strand 2 5mC5,5mC12,5mC17
B2: o_o_o/m_o_o (dsDNA)
DNA 1: TTTGCGGTCCGCTGCCCGACCC
DNA 2: GGGTCGGGCAGCGGACCGCAAA
modifications: strand 2 5mC17
B3: o_o_o_o/m_m_o_o (dsDNA)
DNA 1: GAAGTCAACAGGACGGACGCCGCGCAA
DNA 2: CTCTTTCTTTGCGCGGCGTCCGTCCTGTTGACTTCCTCT
modifications: strand 2 5mC17,5mC21
B4: o_o_m_o/m_m_o_o (dsDNA)
DNA 1: GAAGTCAACAGGACGGACGCCGCGCAA
DNA 2: B3 DNA 2
modifications: strand 1 5mC21; strand 2 5mC17,5mC21
B5: m_o_o_o/m_m_o_o (dsDNA)
DNA 1: GAAGTCAACAGGACGGACGCCGCGCAA
DNA 2: B3 DNA 2
modifications: strand 1 5mC14; strand 2 5mC17,5mC21
B6: o_m_o_o/m_m_o_o (dsDNA)
DNA 1: GAAGTCAACAGGACGGACGCCGCGCAA
DNA 2: B3 DNA 2
modifications: strand 1 5mC18; strand 2 5mC17,5mC21
B7: o_o_o_m/m_m_o_o (dsDNA)
DNA 1: GAAGTCAACAGGACGGACGCCGCGCAA
DNA 2: B3 DNA 2
modifications: strand 1 5mC23; strand 2 5mC17,5mC21
B8: o_m_o/m_o_o (dsDNA)
DNA 1: TTTGCGGTCCGCTGCCCGACCC
DNA 2: GGGTCGGGCAGCGGACCGCAAA
modifications: strand 1 5mC10; strand 2 5mC17
B9: m_o_o/m_o_o (dsDNA)
DNA 1: TTTGCGGTCCGCTGCCCGACCC
DNA 2: GGGTCGGGCAGCGGACCGCAAA
modifications: strand 1 5mC5; strand 2 5mC17
B10: m_o_o*/m_o_o (dsDNA)
DNA 1: GTAGTTTGCGGTCCGCTGCCCGACC
DNA 2: GGGTCGGGCAGCGGACCGCAAA
modifications: strand 1 5mC9; strand 2 5mC17

Each binder was assayed against T1, 1xMBD-GFP (assay: SPR).
Binder B1 has a Kd of 0.209 ± 0.002 µM.

Target: T1, 1xMBD-GFP
Assay: SPR
Remark: another data set of the same source
With B1 the Kd was 0.189 ± 0.001 µM.

Target: T1, 1xMBD-GFP
Assay: SPR
Remark: another data set of the same source
In the case of B2, the Kd is reported as 48 ± 2 µM.
B3 gave a Kd of 7.5 ± 0.2 µM.
Work on B4 yielded a Kd of 4.97 ± 0.07 µM.
B5 was tested, and the Kd was 0.561 ± 0.006 µM.
For B6, the Kd was 0.377 ± 0.007 µM.
For B7, the Kd was 3.94 ± 0.06 µM.
For B8, the Kd was 8 ± 0.1 µM.
In the case of B9, the Kd is reported as 4.2 ± 0.04 µM.
B10 showed a Kd of 0.87 ± 0.01 µM.
